The results in this text go back to US20230372526A1, “PREPARATION METHOD FOR BIS-S[…] ANTIBODY-DRUG CONJUGATE” (MABWELL (SHANGHAI) BIOSCIENCE CO., LTD., priority 2020, published 2023).

This data set can be described thus: Hydrolysis of Pertuzumab conjugated samples obtained using different small molecule compounds, hydrolysis percentage by Native MS. The data set is classed as physicochemical. The settings on record: for hydrolysis of conjugated samples (in words) / 6 h hydrolysis percentage / 18 h hydrolysis percentage: 50 mM PB pH 7.8, 35° C.; for hydrolysis of conjugated samples (in words): summary of Table 3-2; for hydrolysis speed of conjugated samples (in words): hydrolysis systems A-D, pH 7.8, summary of Table 3-3. As for the experimental part: The analysis conditions were as follows: • Capillary activation: the capillary was rinsed with 0.1 mol/L sodium hydroxide for 10 min, 0.1 mol/L hydrochloric acid for 5 min and water for injection for 2 min respectively at 20 psi; and then rinsed with SDS-MW-Gel Buffer for 10 min at 70 psi; afterwards, pre-separation was performed for 10 min at 20 psi, at a column temperature of 25° C. and a voltage of −15 kv. The program was run: at 70 psi, the capillary was rinsed with 0.1 mol/L sodium hydroxide for 3 min, 0.1 mol/L hydrochloric acid for 1 min and water for injection for 1 min respectively; then the gel was poured for 10 min, the sample was loaded for 40 s at −5 kv, and the separation program was run ([…], 20 psi). The column temperature was set to 25° C., the voltage for separation was set to −15 kv, and the separation was performed for 40 min. • (4) Size exclusion chromatography (SEC-HPLC): • Sample treatment: the sample was diluted to 2.0-3.0 mg/ml with the mobile phase, and then was centrifuged at 12000 rpm for 10 min; and the supernatant was taken for analysis. • Chromatographic column: TOSOH, TSKgel G3000SWXL, 5 μm, 7.8 mm×300 mm; • Mobile phase: 100 mM PB+200 mM arginine hydrochloride, 5% isopropanol (pH 6.8); • Flow rate: 0.6 mL/min; • Detection wavelength: 280 nm; • Column temperature: 30° C.; • Loading volume: 10 uL; • Elution gradient: isocratic elution. • (5) Native MS: • Chromatographic column: ACQUITY UPLC Protein BEH SEC 200A (1.7 μm, 2.1 mm×150 mm); • Mobile phase: 50 mM ammonium acetate; • Running time: 12 min; • Flow rate: 0.065 mL/min; • Loading volume: 2 μL; • Column temperature: 30° C.; • Detection wavelength: 280 nm; • Capillary: 3.0 kV; • Cone voltage: 140 V; • Source offset: 80 V; • Source temperature: 125° C.; • Desolvation temperature: 250° C.; • Desolvation gas flow: 600 L/h. • (6) LC-MS:
Pertuzumab was reduced and conjugated as described in section a in Example 2. Conjugated samples obtained using different small molecule compounds were subjected to hydrolysis at 35° C. for a time period in the range of 3-18 hours, in 50 mM sodium dihydrogen phosphate-disodium hydrogen phosphate buffer, pH 7.8. The hydrolysis systems were sampled at different time points, and detected by Native MS.
Pertuzumab was reduced and conjugated as described in section a in Example 2. Conjugated samples obtained using different small molecule compounds were displaced to different hydrolysis solution systems (A: 50 mM sodium dihydrogen phosphate-disodium hydrogen phosphate buffer, pH 7.8; B: 50 mM sodium dihydrogen phosphate-disodium hydrogen phosphate buffer+3% arginine, pH 7.8; C: 50 mM potassium dihydrogen phosphate-dipotassium hydrogen phosphate buffer, pH 7.8; and D: 50 mM tromethamine-hydrochloric acid buffer, pH 7.8) for hydrolysis. Then the hydrolysis systems were sampled at different time points, and detected by Native MS.

Setting [1] is: Pertuzumab conjugate, Native MS.
Where [2] appears, read: Pertuzumab conjugate, 50 mM sodium dihydrogen phosphate-disodium hydrogen phosphate buffer, pH 7.8, 35° C., Native MS.
Where [3] appears, read: hydrolysis system A: 50 mM sodium dihydrogen phosphate-disodium hydrogen phosphate buffer, pH 7.8.
[4] abbreviates: hydrolysis system B: 50 mM sodium phosphate buffer+3% arginine, pH 7.8.
The mark [5] stands for this setting: hydrolysis system C: 50 mM potassium dihydrogen phosphate-dipotassium hydrogen phosphate buffer, pH 7.8.
The mark [6] stands for this setting: hydrolysis system D: 50 mM tromethamine-hydrochloric acid buffer, pH 7.8.

The structures appear in SMILES notation. *1 amine or outer side, *2 acyl side, *3 side chain or, on linkers, in order; H or OH if unused. Where a SMILES comes first, the peptide text is derived from it. [ ]: non-standard residue; d: D form. The star is where a group is joined. ξ: configuration not given here. Dil(5ξ) = CCC(C)[C@@H]([C@@H](CC(=O)[*:2])OC)N(C)[*:1]; Dolaproine = CO[C@@H]([C@@H]1CCCN1)[C@@H](C)C(=O)O; Hexanoyl(6-maleimido) = O=C1C=CC(=O)N1CCCCCC(=O)*; PABC = O=C(OCc1ccc(N[*:1])cc1)[*:2]; X1 = C[C@@H](N*)[C@@H](O)c1ccccc1; Cit = NC(=O)NCCC[C@H](N)C(=O)O; NMeV = CN[C@H](C(=O)O)C(C)C

With `CCC(C)[C@@H]([C@@H](CC(=O)N1CCC[C@H]1[C@H](OC)[C@@H](C)C(=O)N[C@H](C)[C@@H](O)c1ccccc1)OC)N(C)C(=O)[C@@H](NC(=O)[C@H](C(C)C)N(C)C(=O)OCc1ccc(NC(=O)[C@H](CCCNC(N)=O)NC(=O)[C@@H](NC(=O)COCCOCCOCCOc2c(F)cc(N3C(=O)C(Sc4ccc(C(=O)N5CCOCC5)cc4)=C(Sc4ccc(C(=O)N5CCOCC5)cc4)C3=O)cc2F)C(C)C)cc1)C(C)C` (stereo partly drawn) [C-3], the “hydrolysis of conjugated samples (in words)” value is listed as “hydrolyzed all most completely within 3 hours or 6 hours” and the “hydrolysis speed of conjugated samples (in words)” value (“hydrolysis speed” for short) is “hydrolyzed rapidly in all above buffers”. Under setting [1], the “6 h hydrolysis percentage” value was 99.56%. The “3 h hydrolysis percentage” value under setting [2] was determined as 98.31%. Moreover, under setting [3], the “1 h hydrolysis percentage” value amounted to 90.31% and the “3 h hydrolysis percentage” value was found to be 99.56%. Under setting [4], the “1 h hydrolysis percentage” value is reported as 97.52% and the “3 h hydrolysis percentage” value is 99.41%. Besides, under setting [5], the “1 h hydrolysis percentage” value was found to be 90.55% and the “3 h hydrolysis percentage” value was 99.70%. Under setting [6], the “1 h hydrolysis percentage” value is reported as 88.36% and the “3 h hydrolysis percentage” value came out at 99.34%.

Turning to `CCC(C)[C@@H]([C@@H](CC(=O)N1CCC[C@H]1[C@H](OC)[C@@H](C)C(=O)N[C@H](C)[C@@H](O)c1ccccc1)OC)N(C)C(=O)[C@@H](NC(=O)[C@H](C(C)C)N(C)C(=O)OCc1ccc(NC(=O)[C@H](CCCNC(N)=O)NC(=O)[C@@H](NC(=O)COCCOCCOCCOc2c(F)cc(N3C(=O)C(Sc4ccccc4)=C(Sc4ccccc4)C3=O)cc2F)C(C)C)cc1)C(C)C` (stereo partly drawn) [A-3], the “hydrolysis speed” value is “hydrolyzed rapidly in all above buffers”. Also, under setting [3], the “1 h hydrolysis percentage” value was 89.31% and the “3 h hydrolysis percentage” value was 99.32%. Further, under setting [4], the “1 h hydrolysis percentage” value is on record as 93.48% and the “3 h hydrolysis percentage” value worked out at 99.41%. Under setting [5], the “1 h hydrolysis percentage” value came out at 92.52% and the “3 h hydrolysis percentage” value is reported as 99.70%. Under setting [6], the “1 h hydrolysis percentage” value stood at 90.33% and the “3 h hydrolysis percentage” value was determined as 99.31%.

In the case of `CCC(C)[C@@H]([C@@H](CC(=O)N1CCC[C@H]1[C@H](OC)[C@@H](C)C(=O)N[C@H](C)[C@@H](O)c1ccccc1)OC)N(C)C(=O)[C@@H](NC(=O)[C@H](C(C)C)N(C)C(=O)OCc1ccc(NC(=O)[C@H](CCCNC(N)=O)NC(=O)[C@@H](NC(=O)COCCOCCOCCOc2ccc(N3C(=O)C(Sc4ccccc4)=C(Sc4ccccc4)C3=O)c(C(F)(F)F)c2)C(C)C)cc1)C(C)C` (stereo partly drawn) [A-4], the “hydrolysis of conjugated samples (in words)” value is reported as “relatively low percentage of hydrolysis” and the “hydrolysis speed” value is recorded as “required more time for being hydrolyzed”. Also, under setting [1], the “6 h hydrolysis percentage” value stood at 38.49% and the “18 h hydrolysis percentage” value was found to be 53.46%. Besides, the “3 h hydrolysis percentage” value under setting [2] is recorded as 25.99%. Also, under setting [3], the “1 h hydrolysis percentage” value worked out at 15.65% and the “3 h hydrolysis percentage” value was found to be 25.99%. Besides, under setting [4], the “1 h hydrolysis percentage” value is 18.17% and the “3 h hydrolysis percentage” value is 35.23%. Under setting [5], the “1 h hydrolysis percentage” value worked out at 14.98% and the “3 h hydrolysis percentage” value amounted to 26.13%. Under setting [6], the “1 h hydrolysis percentage” value turned out to be 14.56% and the “3 h hydrolysis percentage” value was 25.32%.

As to `CCC(C)[C@@H]([C@@H](CC(=O)N1CCC[C@H]1[C@H](OC)[C@@H](C)C(=O)N[C@H](C)[C@@H](O)c1ccccc1)OC)N(C)C(=O)[C@@H](NC(=O)[C@H](C(C)C)N(C)C(=O)OCc1ccc(NC(=O)[C@H](CCCNC(N)=O)NC(=O)[C@@H](NC(=O)CCCCCN2C(=O)C=CC2=O)C(C)C)cc1)C(C)C` (stereo partly drawn) [D-1] ({Hexanoyl(6-maleimido)}-V[Cit][PABC][NMeV]V[Dil(5ξ)][Dolaproine]-X1), under setting [1], the “6 h hydrolysis percentage” value amounted to 7.67% and the “18 h hydrolysis percentage” value is recorded as 21.44%. Moreover, the “3 h hydrolysis percentage” value under setting [2] is reported as 4.74%.

`CCC(C)[C@@H]([C@@H](CC(=O)N1CCC[C@H]1[C@H](OC)[C@@H](C)C(=O)N[C@H](C)[C@@H](O)c1ccccc1)OC)N(C)C(=O)[C@@H](NC(=O)[C@H](C(C)C)N(C)C(=O)OCc1ccc(NC(=O)[C@H](CCCNC(N)=O)NC(=O)[C@@H](NC(=O)COCCOCCOCCOc2ccc(N3C(=O)C(Sc4ccc(C(=O)N5CCOCC5)cc4)=C(Sc4ccc(C(=O)N5CCOCC5)cc4)C3=O)cc2)C(C)C)cc1)C(C)C` (stereo partly drawn) [C-1]: the “hydrolysis of conjugated samples (in words)” value is on record as “hydrolyzed all most completely within 3 hours or 6 hours” and the “hydrolysis speed” value is given as “hydrolyzed rapidly in all above buffers”. Under setting [1], the “6 h hydrolysis percentage” value came out at 98.25%. Besides, the “3 h hydrolysis percentage” value under setting [2] is 79.08%. Also, under setting [3], the “1 h hydrolysis percentage” value is listed as 85.31% and the “3 h hydrolysis percentage” value is recorded as 99.56%. Besides, under setting [4], the “1 h hydrolysis percentage” value stood at 94.52% and the “3 h hydrolysis percentage” value came to 99.87%. Also, under setting [5], the “1 h hydrolysis percentage” value is recorded as 87.52% and the “3 h hydrolysis percentage” value turned out to be 99.70%. In addition, under setting [6], the “1 h hydrolysis percentage” value worked out at 84.78% and the “3 h hydrolysis percentage” value amounted to 99.79%.

Regarding `CCC(C)[C@@H]([C@@H](CC(=O)N1CCC[C@H]1[C@H](OC)[C@@H](C)C(=O)N[C@H](C)[C@@H](O)c1ccccc1)OC)N(C)C(=O)[C@@H](NC(=O)[C@H](C(C)C)N(C)C(=O)OCc1ccc(NC(=O)[C@H](CCCNC(N)=O)NC(=O)[C@@H](NC(=O)COCCOCCOCCOc2ccc(N3C(=O)C(Sc4ccc(C(=O)NC)cc4)=C(Sc4ccc(C(=O)NC)cc4)C3=O)cc2OC)C(C)C)cc1)C(C)C` (stereo partly drawn) [B-7], the “hydrolysis of conjugated samples (in words)” value was “relatively low percentage of hydrolysis” and the “hydrolysis speed” value is “required more time for being hydrolyzed”. Also, under setting [1], the “6 h hydrolysis percentage” value is 54.71% and the “18 h hydrolysis percentage” value was found to be 76.15%. For the same compound, the “3 h hydrolysis percentage” value under setting [2] is on record as 34.10%. Also, under setting [3], the “1 h hydrolysis percentage” value came out at 15.83% and the “3 h hydrolysis percentage” value came out at 34.10%. Besides, under setting [4], the “1 h hydrolysis percentage” value is 26.12% and the “3 h hydrolysis percentage” value came to 51.25%. Under setting [5], the “1 h hydrolysis percentage” value was found to be 15.12% and the “3 h hydrolysis percentage” value is 35.12%. Under setting [6], the “1 h hydrolysis percentage” value came to 16.62% and the “3 h hydrolysis percentage” value was determined as 36.43%.

In the case of `CCC(C)[C@@H]([C@@H](CC(=O)N1CCC[C@H]1[C@H](OC)[C@@H](C)C(=O)N[C@H](C)[C@@H](O)c1ccccc1)OC)N(C)C(=O)[C@@H](NC(=O)[C@H](C(C)C)N(C)C(=O)OCc1ccc(NC(=O)[C@H](CCCNC(N)=O)NC(=O)[C@@H](NC(=O)COCCOCCOCCOc2ccc(N3C(=O)C(Sc4ccc(C(=O)NC)cc4)=C(Sc4ccc(C(=O)NC)cc4)C3=O)cc2C(F)(F)F)C(C)C)cc1)C(C)C` (stereo partly drawn) [B-6], the “hydrolysis of conjugated samples (in words)” value is “relatively low percentage of hydrolysis”. Under setting [1], the “6 h hydrolysis percentage” value came to 33.32% and the “18 h hydrolysis percentage” value is recorded as 47.60%. Moreover, the “3 h hydrolysis percentage” value under setting [2] is 22.86%.

As to `CCC(C)[C@@H]([C@@H](CC(=O)N1CCC[C@H]1[C@H](OC)[C@@H](C)C(=O)N[C@H](C)[C@@H](O)c1ccccc1)OC)N(C)C(=O)[C@@H](NC(=O)[C@H](C(C)C)N(C)C(=O)OCc1ccc(NC(=O)[C@H](CCCNC(N)=O)NC(=O)[C@@H](NC(=O)COCCOCCOCCOc2ccc(N3C(=O)C(Sc4ccccc4)=C(Sc4ccccc4)C3=O)cn2)C(C)C)cc1)C(C)C` (stereo partly drawn) [A-5], under setting [1], the “6 h hydrolysis percentage” value is recorded as 16.76% and the “18 h hydrolysis percentage” value is reported as 28.81%. Moreover, the “3 h hydrolysis percentage” value under setting [2] is given as 7.29%.
